Literature values, collected in article PMC4370575.
pKd: −log10 of the molar value.

Assays:
UbcH5c~Ub (Homo sapiens) = UbcH5c~Ub (Homo sapiens) (UniProt P61077)
Mms2 (Homo sapiens) = Mms2 (Homo sapiens) (UniProt Q15819)
Chain of UniProt Q15819 (Q15819 2-145): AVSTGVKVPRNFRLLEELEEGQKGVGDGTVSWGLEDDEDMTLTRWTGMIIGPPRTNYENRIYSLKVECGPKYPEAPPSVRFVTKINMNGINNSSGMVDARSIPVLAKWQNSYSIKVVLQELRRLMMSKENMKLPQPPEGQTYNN

| pKd (UbcH5c~Ub (Homo sapiens)) | pKd (Mms2 (Homo sapiens)) | Substance |
| --- | --- | --- |
| 4.60 | – | UbcH5c~Ub (from UniProt P61077) |
| – | 5.70 | Ubc13 (from UniProt P61088) |
